For assay [1], the target named is T1, Human Id1: Histidine (human, UniProt P41134 1-155, limits assumed).
T1 construct: Fusion protein made in E. coli from vector pGW07; also called h-Id1: his; not shown: His tag
T1 sequence (looked up): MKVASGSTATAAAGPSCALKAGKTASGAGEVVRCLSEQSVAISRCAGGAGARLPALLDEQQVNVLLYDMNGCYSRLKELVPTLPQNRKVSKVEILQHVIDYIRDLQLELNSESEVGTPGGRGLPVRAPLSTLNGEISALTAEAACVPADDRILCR
The experiment in a line: ELISA, Ab 0.005 µg/ml. As for the experimental part:
(§1) The rabbit monoclonal anti-human Id3 (clone #3-3) and the rabbit monoclonal anti-mouse/human Id3 (clones #6-1, 16-1, 17-3, and 42-1) produced in Example 6 were tested reactivity against the following antigens: mouse Id1:His, human Id1:His, mouse Id2:His, human Id2:His, mouse Id3:His, human Id3:His, mouse Id4:His, human Id4:His and GST.
(§2) 1. Microtiter wells (prepared in accordance with Example 6) were coated (0.1 μg/well) with mouse Id1:His, human Id1:His, human Id2:His, human Id3:His, and 1.0 μg/well with GST. [0155] 2. Antibody Diluent: 0.25% (w/v) BSA in 0.015M KPO₄ Buffer, 0.85% (w/v) NaCl, 0.1% (w/v) NaN₃, pH=7.40 [0156] 3. Rabbit monoclonal anti-human Id3 (clone #3-3) prepared in Example 7 was diluted to […] with the antibody diluent. […] 4. Rabbit monoclonal anti-mouse/human Id3 (clones #6-1, 16-1, 17-3, 42-1) prepared in Example 7 was diluted to 0.005, 0.010, 0.025, 0.05, 0.10, 0.25, and 0.50 μg/ml with the antibody diluent. […] 5. Conjugate Diluent: 50% (v/v) which consists of an aqueous solution containing Fetal Bovine Serum in 0.05 M Tris, 1% (v/v) Proclin-300, pH 7.6. [0159] 6. Conjugate: Goat anti-rabbit IgG (H+L)-HRP conjugate. [0160] 7. TMB reagent. […] 8. Stop solution (1 N HCI). Method
(§3) 1. Dispense 100 μL of antibody diluent, diluted rabbit monoclonal human Id3, and mouse/human Id3 hybridoma supernatants into appropriate wells. […] 2. Incubate at room temperature with mechanical shaking at 750 rpm for 90 minutes. [0165] 3. Remove the incubation mixture by flicking plate content into an appropriate waste container followed by rinsing the wells 5 times with distilled water. [0166] 4. Strike the wells sharply onto absorbent paper or paper towels to remove all residual water droplets. [0167] 5. Dispense 100 μL of 1:50,000 Goat Anti-Rabbit IgG-HRP Conjugate Reagent into each well. Gently mix for 5 seconds. [0168] 6. Incubate at room temperature with mechanical shaking at 750 rpm for 90 minutes. [0169] 7. Repeat procedures 3 and 4. [0170] 8. Dispense 100 μL of TMB Reagent into each well. Gently mix for 5 seconds. [0171] 9. Incubate at room temperature with mechanical shaking at 750 rpm for 20 minutes. […] 10.
(In an ELISA, binding on a coated surface is turned into a signal by an enzyme label.)

Assay [2] concerns the target T1, Human Id1: Histidine. The experiment in a line: ELISA, Ab 0.050 µg/ml. As for the experimental part:
as §1, §2, §3

For the next assay, the target named is T2, Human Id2: Histidine (human, UniProt Q02363 1-134, limits assumed).
T2 construct: Fusion protein made in E. coli from vector pGW07; also called h-Id2: His; not shown: His tag
T2 sequence (looked up): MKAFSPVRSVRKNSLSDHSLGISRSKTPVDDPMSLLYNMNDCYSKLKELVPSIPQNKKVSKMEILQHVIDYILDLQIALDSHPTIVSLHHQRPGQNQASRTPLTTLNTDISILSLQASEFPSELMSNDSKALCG
Put plainly: ELISA, Ab 0.050 µg/ml. The method, then:
as §1, §2, §3

The target in assay [3] is T3, glutathione S-transferase (GST) (UniProt P08515 1-218 = GST).
T3 construct: also called carrier protein GST
T3 sequence (P08515 whole entry): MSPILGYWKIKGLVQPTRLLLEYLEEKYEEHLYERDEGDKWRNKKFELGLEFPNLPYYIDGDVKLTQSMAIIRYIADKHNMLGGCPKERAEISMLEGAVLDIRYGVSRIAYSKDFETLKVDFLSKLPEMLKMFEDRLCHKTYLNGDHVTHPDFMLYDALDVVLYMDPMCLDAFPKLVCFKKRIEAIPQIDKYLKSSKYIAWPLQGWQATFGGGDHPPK
Put plainly: ELISA, Ab 0.025 µg/ml.

Another assay concerns the target T4, Human Id3: Histidine (human, UniProt Q02535 1-119 at identity 1.00)).
T4 construct: Fusion protein made in E. coli from vector pGW07; also called h-Id3: His; Human Id3 (coated wells); not shown: His tag
T4 chain: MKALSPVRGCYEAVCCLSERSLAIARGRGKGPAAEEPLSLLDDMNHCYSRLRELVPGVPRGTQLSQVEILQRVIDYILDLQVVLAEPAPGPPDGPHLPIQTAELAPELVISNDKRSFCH
Put plainly: ELISA, Ab 0.050 µg/ml. The method, then: as §1, §2, §3

A further assay deals with T5, human Id3 protein (human, UniProt Q02535 1-119 at identity 1.00)).
T5 chain: T4 chain
Put plainly: SPR (BIACORE 2000), antibody immobilized on CM5, Id3 as analyte, 1:1 Langmuir. The method, then:
(§4) Antibodies were immobilized on CM5 sensor chips. All SPR (surface plasmon resonance) assays were carried out in a BIACORE 2000 instrument. A mouse monoclonal antibody was used as reference labeled at the 2nd channel (Fc2) of the chip. Rabbit monoclonal anti-human Id3 (BCH-4/#3-3) or Rabbit monoclonal anti-mouse/human Id3 (BCH-4/#6-1, #16-1 and #17-3) was immobilized on the 4th (Fc4) channel. Final conjugation of antibodies on chip surface was 1878 RU for BCH-4#3-3, BCH-4/#6-1, BCH-4/#16-1, or BCH-3/#17-3. Mouse Id-3 and human Id-3 were applied as mobile analytes. The binding assays were carried out in HBS-P buffer (10 mM HEPES, pH 7.4, containing 150 mM sodium chloride, 0.005% surfactant P-20 detergent and 0.12% glycerol). Kinetics were determined with 8 different analyte concentrations ranging from 3.4 nM to 573 nM. For analyses, 125 μl of analyte were injected (Kinject protocol) at 30 μl/min and the dissociation lasted for 240 seconds at the same flow rate. The surface was regenerated by washing with 50 μl solution of 100 mM glycine and 100 mM of HCl, pH 1.81, at 60 μl/min and the extra cleaning protocol was followed. The kinetic analyses of sensograms were based on the Langmuir (1:1) binding model. Both association rate constant and dissociation rate constants for the interaction of mouse Id-3 and human Id-3 with the immobilized antibodies were determined from the analysis of sensograms using the Biaevaluation software, version 3.0. All binding curves were corrected for background and bulk refractive index contribution by subtraction of the reference flow cells. Models were fitted globally across the data sets. All experiments and analyses were duplicated.

The next assay addresses T6, mouse Id3 protein (mouse, UniProt P41133 1-119).
T6 sequence: T4 chain with G31S, A33S, A34T, A105T, N112K
The description is as above. The method, then: as §4

Substitutions are numbered along the chain they refer to.

B1: rabbit monoclonal anti-human Id3, clone #BCH-4/#3-3 (antibody, V domains shown)
VH: QSVEESGGRLVTPGTPLTLTCTVSGIDLSSYAMSWVRQAPGKGLEWIGVIFPSNNVYYASWAKGRFTISKTSTTVDLKITSPTTEDTATYFCASMGAFDSWGPGTLVTVSS
VL: QVLTQTPSPVSAAVGGTVTINCQASQSIYNDNDLAWFQQKPGQPPKLLIYDASTLTSGVPSRFKGSGSGTQFTLTISDLDCDDAATYYCAARYSGNIYGFGGGTEVVVK
notes: Rabbit IgG from a rabbit hybridoma; also called h Id3 MoAb 3-3
For the molecule B1, the A450 was found to be 0.047 A450 with Human Id1: Histidine [1], 0.05 A450 with Human Id1: Histidine [2], 0.048 A450 with Human Id2: Histidine and 0.048 A450 in assay [3].

B2: rabbit monoclonal anti-mouse/human Id3, clone #BCH-4/#16-1 (antibody, V domains shown)
VH: QSVEESGGRLVTPGTPLTLTCTASGFSLSSYYIHWVRQAPGKALEWIGYISDGGTTYYASWAKGRFTISKTSSTTVDLKMTSLTTEDTATYFCARQGFNIWGPGTLVTVSL
VL: AVLTQTPSPVSAAVGGTVTISCQSSQSVYNNNWLSWFQQKSGQPPKLLIYETSKLESGVPSRFKGSGSGTQFTLTIIDVQCDDAATYYCLGGYWTTSDNNIFGGGTEVVVK
notes: Rabbit IgG from a rabbit hybridoma; also called m/h Id3 MoAb 16-1
With B2, the A450 in the assay with Human Id1: Histidine [1] is 0.042 A450; in the assay with Human Id1: Histidine [2] it was 0.047 A450; with Human Id2: Histidine it was 0.044 A450; with Human Id3: Histidine it was 1.4 A450; in assay [3], 0.048 A450. Further, the Ka turned out to be 1.89e+11 M⁻¹ with human Id3 protein and 2.42e+09 M⁻¹ with mouse Id3 protein.

B3: rabbit monoclonal anti-mouse/human Id3, clone #BCH-4/#6-1 (antibody, V domains shown)
VH: B2 VH with S30N, Y31V, A43G, G54D, T56A, Y57R, S60T, D77N
VL: B2 VL with T19S, Y29W, S41P, I77S, I101V
notes: Rabbit IgG from a rabbit hybridoma; also called m/h Id3 MoAb 6-1
For the molecule B3, the A450 was found to be 0.044 A450 with Human Id1: Histidine [1]; 0.052 A450 with Human Id1: Histidine [2]; 0.046 A450 with Human Id2: Histidine; 1.61 A450 in the assay with Human Id3: Histidine; 0.049 A450 in assay [3]. Also, the Ka is 4.13e+11 M⁻¹ in the assay with human Id3 protein and 5.26e+08 M⁻¹ in the assay with mouse Id3 protein.

B4: rabbit monoclonal anti-mouse/human Id3, clone #BCH-4/#17-3 (antibody, V domains shown)
VH: B2 VH with S30N, Y31V, A43G, G54D, T56A, Y57R, S60T, D77N
VL: B2 VL with T19S, Y29W, S41P, I77S, I101V
notes: Rabbit IgG from a rabbit hybridoma; also called m/h Id3 MoAb 17-3; BCH-3/#17-3
As for B4, the A450 is 0.044 A450 with Human Id1: Histidine [1]; 0.044 A450 in the assay with Human Id1: Histidine [2]; 0.049 A450 with Human Id2: Histidine; 1.8 A450 in the assay with Human Id3: Histidine; 0.045 A450 in assay [3]. The Ka with human Id3 protein was found to be 7.35e+10 M⁻¹; in the assay with mouse Id3 protein, 3.32e+11 M⁻¹.

B5: rabbit monoclonal anti-mouse/human Id3, clone #BCH-4/#42-1 (antibody, V domains shown)
VH: B2 VH
VL: B2 VL with T95S
notes: Rabbit IgG from a rabbit hybridoma; also called m/h Id3 MoAb 42-1
Consider B5, for which the A450 was found to be 0.046 A450 with Human Id1: Histidine [1]; 0.045 A450 with Human Id1: Histidine [2]; 0.047 A450 with Human Id2: Histidine; 2 A450 with Human Id3: Histidine; 0.045 A450 in assay [3].

Source of the values: patent publication US20070178531A1 (BIOCHECK, published 2007).
